The assay has as its target His-SUMO-2B protein (FMDV non-structural 2B protein fused to SUMO) (foot-and-mouth disease virus (FMDV) serotype Asia1). Nature of the assay: cross-linking.

“And” between values parts separate entries of the source, which are not always exact repeats. Equal values may be shown once.

Take “His-SUMO-2B protein (FMDV non-structural 2B protein fused to SUMO) (natural protein)”: the stoichiometry N was 2 and 4 and 6.
